Data from US20240409647A1, “BISPECIFIC BINDING PROTEINS AGAINST ALARMINS AND USES THEREOF” (SINOMAB BIOSCIENCE LIMITED, priority 2022, published 2024).
pKd: −log10 of the molar value.

Key:
IL-33 = molecular target: T1, IL-33 (Homo sapiens, UniProt O95760); assay: Bio-Layer Interferometry (Octet), binding kinetics of bsBp to human IL-33
T1 construct: purchased R&D systems
T1 sequence (O95760 95-270): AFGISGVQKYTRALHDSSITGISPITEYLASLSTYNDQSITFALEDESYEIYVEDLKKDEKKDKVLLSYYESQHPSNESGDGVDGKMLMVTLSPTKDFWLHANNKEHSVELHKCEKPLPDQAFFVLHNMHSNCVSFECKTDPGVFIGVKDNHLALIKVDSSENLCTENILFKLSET
Experimental: The binding affinity of bsBp to the targeted alarmins was determined using a bio-Layer Interferometry analysis (Octet ReD96 system, Sartorius). bsBp or SM17 (20 μg/mL) was immobilized on biosensors via binding to anti-human Fab CH1 region; serially diluted human IL33 and TSLP (158.7 nM, 79.4 nM, 39.7 nM) (R&D systems) were added to plot the association and dissociation curve according to the manufacturer's specification. Biosensors immobilized with irrelevant antibody (SM03, anti-human CD22 chimeric IgG1 antibody, SinoMab BioScience Limited, 20 μg/mL) were used as control reference.

IL-17RB = molecular target: T2, IL-17RB (Homo sapiens, UniProt Q9NRM6); assay: ELISA, antigen binding specificity of bsBp (IL-17RB); parameters: key: −: no binding; +: weak; ++: moderate; +++: strong binding; N/A refers to no binding affinity; settings: 33.5 nM; antigen coated at 2 μg/mL
T2 construct: purchased R&D systems
T2 sequence (Q9NRM6 18-502): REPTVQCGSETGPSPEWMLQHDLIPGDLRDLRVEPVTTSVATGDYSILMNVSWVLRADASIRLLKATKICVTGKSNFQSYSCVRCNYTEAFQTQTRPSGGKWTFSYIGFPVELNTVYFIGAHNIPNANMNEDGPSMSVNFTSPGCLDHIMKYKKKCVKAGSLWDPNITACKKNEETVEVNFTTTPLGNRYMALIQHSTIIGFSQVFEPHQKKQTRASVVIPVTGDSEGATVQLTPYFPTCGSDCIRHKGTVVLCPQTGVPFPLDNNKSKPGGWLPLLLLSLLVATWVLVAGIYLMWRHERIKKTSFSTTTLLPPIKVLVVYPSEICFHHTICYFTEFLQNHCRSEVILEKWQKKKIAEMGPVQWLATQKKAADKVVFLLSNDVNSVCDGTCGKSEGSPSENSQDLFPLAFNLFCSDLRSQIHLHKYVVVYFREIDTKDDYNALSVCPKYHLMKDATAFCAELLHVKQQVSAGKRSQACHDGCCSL
Experimental: Binding specificities of bsBp were evaluated by standard ELISA assays. Briefly, ELISA strips were coated with the respective target antigens, including IL17RB, IL-33, or TSLP (R&D systems) at a final concentration of 2 μg/mL. Bispecific antibodies were added at 33.5 nM to ELISA strips coated with the desired antigen. After incubation under room temperature for 2 hours, ELISA strips were washed five times with PBS. […] No result is provided for SM17-human TSLPR as the yield was too low to be detected.

hIL17RC = molecular target: T3, hIL17RC (Homo sapiens, UniProt Q8NAC3); assay: ELISA, SM17 specificity against IL-17 receptor subunits (IL17RC); assay type: binding; settings: 0.4 to 0.00064 μg/mL
T3 construct: purchased R&D systems
T3 sequence (Q8NAC3 21-791): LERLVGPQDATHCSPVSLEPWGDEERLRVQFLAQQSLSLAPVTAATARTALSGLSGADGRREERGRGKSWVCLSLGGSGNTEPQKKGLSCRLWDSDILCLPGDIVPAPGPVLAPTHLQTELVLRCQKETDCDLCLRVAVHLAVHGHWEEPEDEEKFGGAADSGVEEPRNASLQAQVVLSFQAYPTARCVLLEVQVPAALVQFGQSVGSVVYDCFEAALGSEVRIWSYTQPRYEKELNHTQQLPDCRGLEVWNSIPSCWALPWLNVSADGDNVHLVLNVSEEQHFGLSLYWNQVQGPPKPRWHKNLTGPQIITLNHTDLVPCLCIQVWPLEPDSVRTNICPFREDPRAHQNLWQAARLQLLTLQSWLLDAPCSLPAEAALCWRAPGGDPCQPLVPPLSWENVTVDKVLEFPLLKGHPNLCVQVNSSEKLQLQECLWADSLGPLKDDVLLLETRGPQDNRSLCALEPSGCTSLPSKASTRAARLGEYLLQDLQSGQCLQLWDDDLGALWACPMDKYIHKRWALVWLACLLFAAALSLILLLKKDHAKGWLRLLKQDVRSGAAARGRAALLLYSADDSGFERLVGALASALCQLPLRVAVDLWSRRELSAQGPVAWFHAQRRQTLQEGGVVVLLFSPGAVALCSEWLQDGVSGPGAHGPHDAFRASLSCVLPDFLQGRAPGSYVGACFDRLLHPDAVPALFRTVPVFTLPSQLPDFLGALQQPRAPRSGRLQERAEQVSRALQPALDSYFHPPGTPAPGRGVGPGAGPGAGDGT
Experimental: A standard ELISA method was used to determine the specificity of SM17 against other human IL17 receptor subunits. Similarly, serially diluted SM17 at different concentrations (final concentrations at 0.4, 0.08, 0.016, 0.0032 and 0.00064 μg/m, respectively) was added to the wells of ELISA plates coated either with human IL-17 receptor subunits A, C, D and E (IL17RA, IL17RC, IL17RD, and IL17RE) (R&D systems).

[1] = system: Th2 cell population in human PBMC; assay: Th2 cell population in human PBMC culture (flow cytometry); assay type: cell-based; parameters: key: −: no inhibition; +: weak; ++: moderate; +++: strong inhibition; settings: IL-2 (10 unit/mL) and three alarmins (10 ng/ml), 5 days
Text: While alarmins are known to work in concert to enhance ILC2 and Th2 cell functions such as increase in cell population, steroids such as Dexamethasone (Dex) can negate these effects, resulting in the mitigation of type 2 immune responses [Jia, Yi et al. American Journal Of Respiratory Cell And Molecular Biology, vol. 55, 5 (2016): 675-683]. ILC2 and Th2 cell population can be determined by flow cytometry (BD FACSVerse) following standard procedures known to those skilled in the art.

SM17: humanized anti-IL17RB monoclonal antibody, human IgG4 isotype; HC SEQ ID NO: 32, LC SEQ ID NO: 33
pKd (IL-33): 3.18
Kdis (IL-33): 17.9 s⁻¹
Ka (IL-33; bsBp or SM17 immobilized at 20 μg/mL): 27200 M⁻¹ s⁻¹
Intensity of specific antigen binding, IL-17RB coated on ELISA strips (IL-17RB): +++
binding of SM17 to IL17RC (in words) (hIL17RC): No obvious bindings
Cell proliferation inhibition, Th2 [1]: +++
